Source: publication PMC9063470, “Ultrasensitive fluorescent aptasensor for CRP detection based on the RNase H assisted DNA recycling signal amplification strategy”

Assays:
[1] = target: T1, C-reactive protein (CRP) (UniProt P02741 19-224); test: fluorescent strand-displacement aptasensor (RNase H recycling, GO quenching); CRP 10 ng/mL; P1 strand released from Ap/P1; 20 mM Tris-HCl, 40 mM KCl, 8 mM MgCl2, 1 mM DTT, pH 7.8; 20 min Ap/P1 + CRP incubation; temperature not stated; conditions: chain copies: 5; label: none (5-FAM is on the reporter RNA S3, not on Ap or P1); partial duplex: P1 (23 nt) pairs with Ap nt 48-70; 47 nt 5' and 2 nt 3' single-stranded Ap overhangs
T1 sequence: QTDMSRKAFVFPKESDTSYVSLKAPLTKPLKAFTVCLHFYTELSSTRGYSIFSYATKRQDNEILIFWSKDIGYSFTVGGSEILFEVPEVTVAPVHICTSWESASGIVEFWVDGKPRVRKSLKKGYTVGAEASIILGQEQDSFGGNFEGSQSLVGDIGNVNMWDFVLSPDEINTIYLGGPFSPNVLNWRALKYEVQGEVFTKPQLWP

[2] = target: BNP (UniProt P16860 103-134); test: fluorescent strand-displacement aptasensor (RNase H recycling, GO quenching); 50 ng/mL; negligible signal; 20 mM Tris-HCl, 40 mM KCl, 8 mM MgCl2, 1 mM DTT, pH 7.8; 20 min Ap/P1 + CRP incubation; temperature not stated; conditions: label: none (5-FAM is on the reporter RNA S3, not on Ap or P1); partial duplex: P1 (23 nt) pairs with Ap nt 48-70; 47 nt 5' and 2 nt 3' single-stranded Ap overhangs
BNP, sequence (P16860 103-134): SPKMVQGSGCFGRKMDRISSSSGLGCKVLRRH

[3] = target: T2, MB (UniProt P02144 2-154); test: as above; conditions: label: none (5-FAM is on the reporter RNA S3, not on Ap or P1); partial duplex: P1 (23 nt) pairs with Ap nt 48-70; 47 nt 5' and 2 nt 3' single-stranded Ap overhangs
T2 sequence: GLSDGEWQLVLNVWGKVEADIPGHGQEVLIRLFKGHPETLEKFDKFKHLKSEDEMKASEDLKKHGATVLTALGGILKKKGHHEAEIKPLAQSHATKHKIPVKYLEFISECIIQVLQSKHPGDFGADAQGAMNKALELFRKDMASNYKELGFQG

B1: CRP aptamer (Ap) presented as Ap/P1 complex (mixed)
DNA 1: GGCAGGAAGACAAACATATAATTGAGATCGTTTGATGACTTTGTAAGAGTGTGGAATGGTCTGTGGTGCTGT
DNA 2: AGCACCACAGACCATTCCACACT
**Q.** What does the source list for B1?
**A.** binding result [1]: binds; binding result [2]: no binding; binding result [3]: no binding
